# From paper PMC10397247
# T1: 4H3189-bN
# T1 chain: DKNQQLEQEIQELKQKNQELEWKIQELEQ
# T2: 4H370-bN
# T2 chain: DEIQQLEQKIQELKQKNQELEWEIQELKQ
# T3: 4H967-bN
# T3 chain: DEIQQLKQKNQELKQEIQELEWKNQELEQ
# T4: 4H568-bN
# T4 chain: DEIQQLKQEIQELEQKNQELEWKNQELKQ
# T5: 4H331-bN
# T5 chain: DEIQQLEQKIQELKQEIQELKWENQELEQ
# T6: 4H2610-bN
# T6 chain: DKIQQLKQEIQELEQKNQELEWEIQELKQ
# T7: 4H883-bN
# T7 chain: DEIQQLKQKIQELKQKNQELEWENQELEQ
# T8: 4H953-bN
# T8 chain: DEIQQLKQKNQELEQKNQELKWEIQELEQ
# T9: 4H687-bN
# T9 chain: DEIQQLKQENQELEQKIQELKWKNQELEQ
# T10: 4H3843-bN
# T10 chain: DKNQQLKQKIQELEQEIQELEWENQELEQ
# T11: 4H2576-bN
# T11 chain: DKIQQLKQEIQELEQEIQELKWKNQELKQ
# T12: 4H3606-bN
# T12 chain: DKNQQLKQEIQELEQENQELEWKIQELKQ
# T13: 4H4001-bN
# T13 chain: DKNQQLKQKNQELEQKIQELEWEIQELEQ
# T14: 4H1845-bN
# T14 chain: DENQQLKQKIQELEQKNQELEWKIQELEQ
# T15: 4H797-bN
# T15 chain: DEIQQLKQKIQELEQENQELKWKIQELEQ
# T16: 4H607-bN
# T16 chain: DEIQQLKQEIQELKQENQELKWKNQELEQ
# T17: 4H1369-bN
# T17 chain: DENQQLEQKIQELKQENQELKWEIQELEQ
# T18: 4H2697-bN
# T18 chain: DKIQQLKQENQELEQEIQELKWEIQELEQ
# T19: 4H918-bN
# T19 chain: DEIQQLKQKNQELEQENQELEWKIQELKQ
# T20: 4H2162-bA
# T20 chain: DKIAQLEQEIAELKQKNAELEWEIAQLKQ
# T21: 4H72-bN
# T21 chain: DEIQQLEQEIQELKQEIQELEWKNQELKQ
# T22: 4H462-bN
# T22 chain: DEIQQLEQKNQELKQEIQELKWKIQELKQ
# T23: 4H3782-bN
# T23 chain: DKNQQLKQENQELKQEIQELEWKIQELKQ
# T24: 4H2667-bN
# T24 chain: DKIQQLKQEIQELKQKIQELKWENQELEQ
# T25: 4H1446-bN
# T25 chain: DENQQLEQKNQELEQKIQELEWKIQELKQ
# T26: 4H2162-bN
# T26 chain: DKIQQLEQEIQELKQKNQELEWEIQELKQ
# T27: 4H1387-bN
# T27 chain: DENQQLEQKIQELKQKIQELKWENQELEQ
# T28: 4H3592-bN
# T28 chain: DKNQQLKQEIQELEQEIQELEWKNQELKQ
# T29: 4H3907-bN
# T29 chain: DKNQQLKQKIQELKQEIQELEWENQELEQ
# T30: 4H3601-bN
# T30 chain: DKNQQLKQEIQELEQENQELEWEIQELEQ
# T31: 4H1406-bN
# T31 chain: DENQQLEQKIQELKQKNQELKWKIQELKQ
# T32: 4H454-bN
# T32 chain: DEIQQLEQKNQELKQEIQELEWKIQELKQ
# T33: 4H4038-bN
# T33 chain: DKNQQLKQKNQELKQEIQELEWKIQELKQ
# T34: 4H2504-AA
# T34 chain: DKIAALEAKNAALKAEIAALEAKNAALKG
# T35: 4H3340-AA
# T35 chain: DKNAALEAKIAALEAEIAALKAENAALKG
# T36: 4H406-AA
# T36 chain: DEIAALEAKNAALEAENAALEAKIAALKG
# T37: 4H2592-AA
# T37 chain: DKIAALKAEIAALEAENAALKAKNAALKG
# T38: 4H376-AA
# T38 chain: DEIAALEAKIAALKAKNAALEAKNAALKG
# T39: 4H2219-AA
# T39 chain: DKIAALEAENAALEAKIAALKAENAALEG
# T40: 4H963-AA
# T40 chain: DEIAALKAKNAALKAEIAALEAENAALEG
# T41: 4H688-AA
# T41 chain: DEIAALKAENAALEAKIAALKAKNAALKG
# T42: 4H3001-AA
# T42 chain: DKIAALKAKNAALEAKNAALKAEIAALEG
# T43: 4H3493-AA
# T43 chain: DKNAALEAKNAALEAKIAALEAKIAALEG
# T44: 4H1738-AA
# T44 chain: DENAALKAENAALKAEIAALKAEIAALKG
# T45: 4H2774-AA
# T45 chain: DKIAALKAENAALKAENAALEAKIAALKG
# T46: 4H3381-AA
# T46 chain: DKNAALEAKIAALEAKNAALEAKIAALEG
# T47: 4H249-AA
# T47 chain: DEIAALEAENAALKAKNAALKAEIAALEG
# T48: 4H347-AA
# T48 chain: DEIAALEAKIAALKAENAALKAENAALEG
# T49: 4H2611-AA
# T49 chain: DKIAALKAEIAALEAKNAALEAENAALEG
# What was measured:
# 4H3189-bN = target: T1, 4H3189-bN; experiment: two-hybrid library CCNG1;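 further: natural log of median RNA to DNA barcode read ratio; higher means stronger binding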
# 4H370-bN = target: T2, 4H370-bN; experiment: two-hybrid library CCNG1;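 further: natural log of median RNA to DNA barcode read ratio; higher means stronger binding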
# 4H967-bN = target: T3, 4H967-bN; experiment: two-hybrid library CCNG1;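 further: natural log of median RNA to DNA barcode read ratio; higher means stronger binding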
# 4H568-bN = target: T4, 4H568-bN; experiment: two-hybrid library CCNG1;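 further: natural log of median RNA to DNA barcode read ratio; higher means stronger binding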
# 4H331-bN = target: T5, 4H331-bN; experiment: two-hybrid library CCNG1
# 4H2610-bN = target: T6, 4H2610-bN; experiment: two-hybrid library CCNG1
# 4H883-bN = target: T7, 4H883-bN; experiment: two-hybrid library CCNG1
# 4H953-bN = target: T8, 4H953-bN; experiment: two-hybrid library CCNG1
# 4H687-bN = target: T9, 4H687-bN; experiment: two-hybrid library CCNG1
# 4H3843-bN = target: T10, 4H3843-bN; experiment: two-hybrid library CCNG1
# 4H2576-bN = target: T11, 4H2576-bN; experiment: two-hybrid library CCNG1
# 4H3606-bN = target: T12, 4H3606-bN; experiment: two-hybrid library CCNG1
# 4H4001-bN = target: T13, 4H4001-bN; experiment: two-hybrid library CCNG1
# 4H1845-bN = target: T14, 4H1845-bN; experiment: two-hybrid library CCNG1
# 4H797-bN = target: T15, 4H797-bN; experiment: two-hybrid library CCNG1
# 4H607-bN = target: T16, 4H607-bN; experiment: two-hybrid library CCNG1
# 4H1369-bN = target: T17, 4H1369-bN; experiment: two-hybrid library CCNG1
# 4H2697-bN = target: T18, 4H2697-bN; experiment: two-hybrid library CCNG1
# 4H918-bN = target: T19, 4H918-bN; experiment: two-hybrid library CCNG1
# 4H2162-bA = target: T20, 4H2162-bA; experiment: two-hybrid library CCNG1
# 4H72-bN = target: T21, 4H72-bN; experiment: two-hybrid library CCNG1
# 4H462-bN = target: T22, 4H462-bN; experiment: two-hybrid library CCNG1
# 4H3782-bN = target: T23, 4H3782-bN; experiment: two-hybrid library CCNG1
# 4H2667-bN = target: T24, 4H2667-bN; experiment: two-hybrid library CCNG1
# 4H1446-bN = target: T25, 4H1446-bN; experiment: two-hybrid library CCNG1
# 4H2162-bN = target: T26, 4H2162-bN; experiment: two-hybrid library CCNG1
# 4H1387-bN = target: T27, 4H1387-bN; experiment: two-hybrid library CCNG1
# 4H3592-bN = target: T28, 4H3592-bN; experiment: two-hybrid library CCNG1
# 4H3907-bN = target: T29, 4H3907-bN; experiment: two-hybrid library CCNG1
# 4H3601-bN = target: T30, 4H3601-bN; experiment: two-hybrid library CCNG1
# 4H1406-bN = target: T31, 4H1406-bN; experiment: two-hybrid library CCNG1
# 4H454-bN = target: T32, 4H454-bN; experiment: two-hybrid library CCNG1
# 4H4038-bN = target: T33, 4H4038-bN; experiment: two-hybrid library CCNG1
# 4H2504-AA = target: T34, 4H2504-AA; experiment: two-hybrid library CCmax
# 4H3340-AA = target: T35, 4H3340-AA; experiment: two-hybrid library CCmax; conditions: mean of both orientations
# 4H406-AA = target: T36, 4H406-AA; experiment: two-hybrid library CCmax; conditions: mean of both orientations
# 4H2592-AA = target: T37, 4H2592-AA; experiment: two-hybrid library CCmax; conditions: mean of both orientations
# 4H376-AA = target: T38, 4H376-AA; experiment: two-hybrid library CCmax; conditions: mean of both orientations
# 4H2219-AA = target: T39, 4H2219-AA; experiment: two-hybrid library CCmax; conditions: mean of both orientations
# 4H963-AA = target: T40, 4H963-AA; experiment: two-hybrid library CCmax; conditions: mean of both orientations
# 4H688-AA = target: T41, 4H688-AA; experiment: two-hybrid library CCmax; conditions: mean of both orientations
# 4H3001-AA = target: T42, 4H3001-AA; experiment: two-hybrid library CCmax; conditions: mean of both orientations
# 4H3493-AA = target: T43, 4H3493-AA; experiment: two-hybrid library CCmax; conditions: mean of both orientations
# 4H1738-AA = target: T44, 4H1738-AA; experiment: two-hybrid library CCmax
# 4H2774-AA = target: T45, 4H2774-AA; experiment: two-hybrid library CCmax; conditions: mean of both orientations
# 4H3381-AA = target: T46, 4H3381-AA; experiment: two-hybrid library CCmax; conditions: mean of both orientations
# 4H249-AA = target: T47, 4H249-AA; experiment: two-hybrid library CCmax; conditions: mean of both orientations
# 4H347-AA = target: T48, 4H347-AA; experiment: two-hybrid library CCmax; conditions: mean of both orientations
# 4H2611-AA = target: T49, 4H2611-AA; experiment: two-hybrid library CCmax; conditions: mean of both orientations
binder,measurement,setting,value
DENQQLEQKIQELKQENQELKWEIQELEQ [4H1369-bN],interaction score,4H3189-bN,-0.697
same,interaction score,4H370-bN,-1.79
same,interaction score,4H967-bN,-0.997
same,interaction score,4H568-bN,-1.26
same,interaction score,4H331-bN,-1.16
same,interaction score,4H2610-bN,-0.97
same,interaction score,4H883-bN,-1.19
same,interaction score,4H953-bN,-1.2
same,interaction score,4H687-bN,-1.7
same,interaction score,4H3843-bN,-1.02
same,interaction score,4H2576-bN,-0.023
same,interaction score,4H3606-bN,0.215
same,interaction score,4H4001-bN,-0.815
same,interaction score,4H1845-bN,-1.4
same,interaction score,4H797-bN,-1.65
same,interaction score,4H607-bN,-0.655
same,interaction score,4H1369-bN,-0.802
same,interaction score,4H2697-bN,-0.852
same,interaction score,4H918-bN,-0.868
same,interaction score,4H2162-bA,-0.463
same,interaction score,4H72-bN,-1.26
same,interaction score,4H462-bN,-1.07
same,interaction score,4H3782-bN,-1.06
same,interaction score,4H2667-bN,-1.23
same,interaction score,4H1446-bN,-2.34
DENQQLEQKIQELKQKIQELKWENQELEQ [4H1387-bN],interaction score,4H2162-bN,-2.27
same,interaction score,4H1387-bN,-1.9
same,interaction score,4H3592-bN,0.94
same,interaction score,4H3907-bN,1.31
same,interaction score,4H3601-bN,-0.293
same,interaction score,4H1406-bN,-0.625
same,interaction score,4H454-bN,-0.28
same,interaction score,4H4038-bN,0.464
DENAALKAENAALKAEIAALKAEIAALKG [4H1738-AA],interaction score,4H2504-AA,-1.96
same,interaction score,4H3340-AA,-1.31
same,interaction score,4H406-AA,-1.49
same,interaction score,4H2592-AA,-1.14
same,interaction score,4H376-AA,-1.75
same,interaction score,4H2219-AA,-1.76
same,interaction score,4H963-AA,-1.8
same,interaction score,4H688-AA,-1.24
same,interaction score,4H3001-AA,-1.39
same,interaction score,4H3493-AA,-1.11
same,interaction score,4H1738-AA,1.65
same,interaction score,4H2774-AA,-1.15
same,interaction score,4H3381-AA,-1.45
same,interaction score,4H249-AA,-1.2
same,interaction score,4H347-AA,-1.67
same,interaction score,4H2611-AA,-1.52
